Measurements published in article doi:10.1101/2023.10.06.561269 (bioRxiv, 2023).

B1: V. cholerae FtsE (natural protein)
chain: MIRFQQVSKAYRGGRQALQKVDFHLRRGEMAFLGGHSGAGKSTLLKLICAIERPTDGKISFNGHDITRIPNKDIPFLRRNIGIVFQDHRLLMDRSIYDNVALPMRIESISENEIKRRVSAALDKTGLLDKARCLPSQLSGGEQQRVGIARAVVNRPTLLLADEPTGNLDPELSSRVLRLFEEFNRAGVTILLATHDIHLVNSRPQYRHLELNQGFLSEVADYGR
B2: V. cholerae FtsX (natural protein)
chain: MAVKPGNQKISKTTKSTKSKPRDVKRAKTDSFLAIHFKQAKASFAALWRRPLGNILTLAVISMALALPASLYLLSKNIASVAERVAEPSQLSVYLHIDTPEPRIIVLKDDLERRDEIAKVKYISPQQGLDDLSQYAGFEQAISLLDNATLPAVLVVTPKVDSREQIQTLAKALQAEEGVTDVRMDEDWFARLDAIRHLATIVVISLSSLMLMSVFLIVGNTLRFNVQANKEEIQTMKLIGATDAYILRPYLYSGMWFGLLGAVAAWLLTALMTILLNGAVEALAQLYDSRFRLIGLGWDESLLLLMLGVFLGCVAAKVSAKRHLKEIEPV

Biological target: the molecule itself
Assay: cryo-EM structure

Row | Protein | stoichiometry N
1 | B1 | 2
2 | B2 | 2
